Laboratory results published in patent US20150004190A1.

B1: 2F5 IgA2 (antibody, V domains shown)
VH: RITLKESGPPLVKPTQTLTLTCSFSGFSLSDFGVGVGWIRQPPGKALEWLAIIYSDDDKRYSPSLNTRLTITKDTSKNQVVLVMTRVSPVDTATYFCAHRRGPTTLFGVPIARGPVNAMDVWGQGITVTI
VL: ALQLTQSPSSLSASVGDRITITCRASQGVTSALAWYRQKPGSPPQLLIYDASSLESGVPSRFSGSGSGTEFTLTISTLRPEDFATYYCQQLHFYPHTFGGGTRVDVR
B2: 2F5 IgG1 (antibody, V domains shown)
VH: B1 VH
VL: B1 VL

Columns and labels:
Peptide ELDKWA (HIV-1) [1] = experiment: ELISA on coated peptide
Peptide ELDKWA (HIV-1) [2] = experiment: ELISA on coated peptide (FIG. 1)
Peptide ELDKWA (HIV-1) [3] = experiment: competitive ELISA, competitor 0.027 nM 2F5 IgA2 detected with anti-human IgA

Binder | fold higher efficacy as compared to IgG1 (Peptide ELDKWA (HIV-1) [1]) | antibody concentration of equivalent binding activity (Peptide ELDKWA (HIV-1) [2]) | concentration needed to compete (Peptide ELDKWA (HIV-1) [3])
B1 | > 100 fold | 0.05 nM | 
B2 |  | 6.25 nM | 25 nM
